Columns and labels:
[1] = substrate: Cc1cc(=O)oc2cc(NC(=O)[C@H](CCCNC(=N)N)NC(=O)[C@H](Cc3ccccc3)NC(=O)OCc3ccccc3)ccc12; experiment: purified protein, by the assay type
Protocol: (§1) Expression of the recombinant Medaka EP catalytic domain in the Escherichia coli expression system was carried out as described previously (Ogiwara et al., Proc. Natl. Acad. Sci. USA, 102:8442-8447 (2005)). The Medaka EP catalytic domain was produced as a fusion protein with an extra amino acid sequence of 50 residues at its N-terminus; the vector-derived N-terminal stretch contained a His-tag and an S-protein sequence. Harvested cells were lysed and the insoluble materials were dissolved in a solubilization buffer containing 6 M urea, 50 mM Tris.HCl (pH 7.6), and 0.5 M NaCl. […] Eluted recombinant proteins were renatured by dialysis against 50 mM Tris.HCl (pH 8.0). The fusion protein was then incubated in 50 mM Tris.HCl (pH 8.0) containing 0.5 M NaCl with trypsin immobilized on Sepharose 4B at room temperature for 1 h. The immobilized trypsin was then removed by filtration.
(§2) Site-directed mutagenesis of Medaka EP-1 was carried out to produce various mutant proteases. […] The subsequent procedures for preparation of mutant proteases were the same as for the wild-type protein described above. The active recombinant protein concentrations were determined using the active site titrant p-nitrophenyl-p′-guanidinobenzoate HCl (Sigma) using the method described previously (Chase et al., Biochem. Biophys. Res. Commun., 29:508-514 (1976)).
(§3) Enzyme activity for various 4-methylcoumaryl-7-amide (MCA)-containing peptide substrates was determined by the method of Barrett (Barrett et al., J., Biochem. J., 187:909-912 (1980)). For kinetic studies, initial velocities, extrapolated from the plot of product versus time, were transformed into double-reciprocal plots (Lineweaver et al., J. Am. Chem. Soc., 56:658-663 (1934)). The maximum velocities (Vmax) and Km and kcat values were obtained from the intercepts of these plots.

[2] = substrate: Cc1cc(=O)oc2cc(NC(=O)[C@H](CCCNC(=N)N)NC(=O)[C@H](Cc3ccccc3)NC(=O)[C@@H]3CCCN3)ccc12; experiment: purified protein, by the assay type
Protocol: as §1, §2, §3

[3] = substrate: Cc1cc(=O)oc2cc(NC(=O)[C@H](CCCNC(=N)N)NC(=O)[C@H](C)NC(=O)[C@H](CCC(=O)OCc3ccccc3)NC(=O)OC(C)(C)C)ccc12; experiment: purified protein, by the assay type
Protocol: as §1, §2, §3

[4] = substrate: Cc1cc(=O)oc2cc(NC(=O)[C@H](CCCNC(=N)N)NC(=O)[C@H](Cc3ccccc3)NC(=O)OCc3ccccc3)ccc12; experiment: Kinetic parameters for MCA-containing peptide substrates, porcine EP; type: biochemical; settings: other: Porcine
[5] = substrate: Cc1cc(=O)oc2cc(NC(=O)[C@H](CCCNC(=N)N)NC(=O)[C@H](Cc3ccccc3)NC(=O)[C@@H]3CCCN3)ccc12; experiment: as above; type: biochemical; settings: other: Porcine
[6] = substrate: Cc1cc(=O)oc2cc(NC(=O)[C@H](CCCNC(=N)N)NC(=O)[C@H](C)NC(=O)[C@H](CCC(=O)OCc3ccccc3)NC(=O)OC(C)(C)C)ccc12; experiment: as above; type: biochemical; settings: other: Porcine
[7] = substrate: Cc1cc(=O)oc2cc(NC(=O)[C@H](CCCNC(=N)N)NC(=O)[C@H](Cc3ccccc3)NC(=O)OCc3ccccc3)ccc12; experiment: Kinetic parameters for MCA-containing peptide substrates, EP-1(WT); type: biochemical, Japanese Medaka (Oryzias latipes); settings: other: EP-1(WT)
[8] = substrate: Cc1cc(=O)oc2cc(NC(=O)[C@H](CCCNC(=N)N)NC(=O)[C@H](Cc3ccccc3)NC(=O)[C@@H]3CCCN3)ccc12; experiment: as above; type: biochemical, Japanese Medaka (Oryzias latipes); settings: other: EP-1(WT)
[9] = substrate: Cc1cc(=O)oc2cc(NC(=O)[C@H](CCCNC(=N)N)NC(=O)[C@H](C)NC(=O)[C@H](CCC(=O)OCc3ccccc3)NC(=O)OC(C)(C)C)ccc12; experiment: as above; type: biochemical, Japanese Medaka (Oryzias latipes); settings: other: EP-1(WT)

B1: medaka EP-1 enteropeptidase serine protease domain (parent SEQ ID NO: 2), variant P193E (Oryzias latipes; P970E) (protein)
chain: CGQRQVYNSKENNGVPRVVGGVNAEKGAWPWMVSLHWRGRHGCGASLIGRDWLLTAAHCVYGKNTHLQYWSAVLGLHAQSSMNSQEVQIRQVDRIIINKNYNRRTKEADIAMMHLQQPVNFTEWVLPVCLASEDQHFPAGRRCFIAGWGRDAEGGSLPDILQEAEVPLVDQDECQRLLPEYTFTSSMLCAGYEEGGVDSCQGDSGGPLMCLEDARWTLIGVTSFGVGCGRPERPGAYARVSAFTSWIAETRRSSFSDLD
- Km ([1]; other: P193E): 200 µM
- kcat ([1]; other: P193E): 0.0283 s⁻¹
- kcat/Km ([1]; other: P193E): 150 M⁻¹ s⁻¹
- Km ([2]; other: P193E): 1000 µM
- kcat ([2]; other: P193E): 0.45 s⁻¹
- kcat/Km ([2]; other: P193E): 450 M⁻¹ s⁻¹
- Km ([3]; other: P193E): 200 µM
- kcat ([3]; other: P193E): 0.0383 s⁻¹
- kcat/Km ([3]; other: P193E): 200 M⁻¹ s⁻¹

B2: medaka EP-1 enteropeptidase serine protease domain (parent SEQ ID NO: 2), variant K63R (Oryzias latipes; K840R) (protein)
chain: CGQRQVYNSKENNGVPRVVGGVNAEKGAWPWMVSLHWRGRHGCGASLIGRDWLLTAAHCVYGRNTHLQYWSAVLGLHAQSSMNSQEVQIRQVDRIIINKNYNRRTKEADIAMMHLQQPVNFTEWVLPVCLASEDQHFPAGRRCFIAGWGRDAEGGSLPDILQEAEVPLVDQDECQRLLPEYTFTSSMLCAGYPEGGVDSCQGDSGGPLMCLEDARWTLIGVTSFGVGCGRPERPGAYARVSAFTSWIAETRRSSFSDLD
- Km ([1]; other: K63R): 100 µM
- kcat ([1]; other: K63R): 0.0233 s⁻¹
- kcat/Km ([1]; other: K63R): 233 M⁻¹ s⁻¹
- Km ([2]; other: K63R): 1100 µM
- kcat ([2]; other: K63R): 0.183 s⁻¹
- kcat/Km ([2]; other: K63R): 167 M⁻¹ s⁻¹
- Km ([3]; other: K63R): 1200 µM
- kcat ([3]; other: K63R): 0.2 s⁻¹
- kcat/Km ([3]; other: K63R): 167 M⁻¹ s⁻¹

B3: porcine EP serine protease domain (Ile800 to His1034) (Sus scrofa) (protein)
chain: IVGGNDSREGAWPWVVALYYNGQLLCGASLVSRDWLVSAAHCVYGRNLEPSKWKAILGLHMTSNLTSPQIVTRLIDEIVINPHYNRRRKDSDIAMMHLEFKVNYTDYIQPICLPEENQVFPPGRICSIAGWGKVIYQGSPADILQEADVPLLSNEKCQQQMPEYNITENMMCAGYEEGGIDSCQGDSGGPLMCLENNRWLLAGVTSFGYQCALPNRPGVYARVPKFTEWIQSFLH
- Km [4]: 200 µM
- kcat [4]: 0.917 s⁻¹
- kcat/Km [4]: 4670 M⁻¹ s⁻¹
- Km [5]: 3900 µM
- kcat [5]: 5 s⁻¹
- kcat/Km [5]: 1280 M⁻¹ s⁻¹
- Km [6]: 300 µM
- kcat [6]: 1.83 s⁻¹
- kcat/Km [6]: 6170 M⁻¹ s⁻¹

B4: medaka EP-1 enteropeptidase serine protease domain (parent SEQ ID NO: 2), variant T105E (Oryzias latipes; T882E) (protein)
chain: VVGGVNAEKGAWPWMVSLHWRGRHGCGASLIGRDWLLTAAHCVYGKNTHLQYWSAVLGLHAQSSMNSQEVQIRQVDRIIINKNYNRREKEADIAMMHLQQPVNFTEWVLPVCLASEDQHFPAGRRCFIAGWGRDAEGGSLPDILQEAEVPLVDQDECQRLLPEYTFTSSMLCAGYPEGGVDSCQGDSGGPLMCLEDARWTLIGVTSFGVGCGRPERPGAYARVSAFTSWIAETRRSSFSDLD
- Km ([1]; other: T105E): 100 µM
- kcat ([1]; other: T105E): 0.0333 s⁻¹
- kcat/Km ([1]; other: T105E): 333 M⁻¹ s⁻¹
- Km ([2]; other: T105E): 1300 µM
- kcat ([2]; other: T105E): 0.267 s⁻¹
- kcat/Km ([2]; other: T105E): 200 M⁻¹ s⁻¹
- Km ([3]; other: T105E): 1300 µM
- kcat ([3]; other: T105E): 0.183 s⁻¹
- kcat/Km ([3]; other: T105E): 150 M⁻¹ s⁻¹

B5: medaka EP-1 enteropeptidase serine protease domain (parent SEQ ID NO: 2), variant E173A, SEQ ID NO: 4 (Oryzias latipes; E950A) (protein)
chain: VVGGVNAEKGAWPWMVSLHWRGRHGCGASLIGRDWLLTAAHCVYGKNTHLQYWSAVLGLHAQSSMNSQEVQIRQVDRIIINKNYNRRTKEADIAMMHLQQPVNFTEWVLPVCLASEDQHFPAGRRCFIAGWGRDAEGGSLPDILQEAEVPLVDQDACQRLLPEYTFTSSMLCAGYPEGGVDSCQGDSGGPLMCLEDARWTLIGVTSFGVGCGRPERPGAYARVSAFTSWIAETRRSSFSDLD
- Km ([1]; other: E173A): 400 µM
- kcat ([1]; other: E173A): 0.0383 s⁻¹
- kcat/Km ([1]; other: E173A): 100 M⁻¹ s⁻¹
- Km ([2]; other: E173A): 1000 µM
- kcat ([2]; other: E173A): 0.153 s⁻¹
- kcat/Km ([2]; other: E173A): 150 M⁻¹ s⁻¹
- Km ([3]; other: E173A): 1000 µM
- kcat ([3]; other: E173A): 0.167 s⁻¹
- kcat/Km ([3]; other: E173A): 167 M⁻¹ s⁻¹

B6: medaka EP-1 enteropeptidase serine protease domain, wild type, SEQ ID NO: 2 (Oryzias latipes) (protein)
chain: VVGGVNAEKGAWPWMVSLHWRGRHGCGASLIGRDWLLTAAHCVYGKNTHLQYWSAVLGLHAQSSMNSQEVQIRQVDRIIINKNYNRRTKEADIAMMHLQQPVNFTEWVLPVCLASEDQHFPAGRRCFIAGWGRDAEGGSLPDILQEAEVPLVDQDECQRLLPEYTFTSSMLCAGYPEGGVDSCQGDSGGPLMCLEDARWTLIGVTSFGVGCGRPERPGAYARVSAFTSWIAETRRSSFSDLD
- Km [7]: 100 µM
- kcat [7]: 0.0483 s⁻¹
- kcat/Km [7]: 483 M⁻¹ s⁻¹
- Km [8]: 10000 µM
- kcat [8]: 2.33 s⁻¹
- kcat/Km [8]: 233 M⁻¹ s⁻¹
- Km [9]: 200 µM
- kcat [9]: 0.112 s⁻¹
- kcat/Km [9]: 567 M⁻¹ s⁻¹

From US8013137B2, “Modified enteropeptidase protein” (National University Corporation Hokkaido University, priority 2006, dated 2011)
